Assay results from US20230183305A1, “KERATIN BD-11, PREPARATION METHOD THEREFOR AND PHARMACEUTICAL COMPOSITION AND USE THEREOF” (INSTITUTE OF MATERIA MEDICA, CHINESE ACADEMY OF MEDICAL …, priority 2019, published 2023).

Key:
[1] = system: yeast-induced fever model in SD rats; experiment: Yeast-induced fever model in SD rats; type: in vivo, rat; conditions: for Body temperature 2 hours after modeling: 2 h after 20% yeast s.c.; for Body temperature 2 hours after modeling / Body temperature 4 hours after modeling / Body temperature 6 hours after modeling / Body temperature 8 hours after modeling: n=8; for Body temperature 4 hours after modeling: 4 h after 20% yeast s.c.; for Body temperature 6 hours after modeling: 6 h after 20% yeast s.c.; for Body temperature 8 hours after modeling: 8 h after 20% yeast s.c.
Method: • Animals: 230-260 grams of male SD rats;; • Drugs: yeast (OXOID LP0021), aspirin (SIGMA A2093), protein BD-11; • Instruments: electronic balance (SARTORIUS BP121S type), electronic clinical thermometer (CITIZEN CT-513W type).
Experiment grouping: • Normal control group; • Model group: yeast fever model; • Positive control group: Aspirin 300 mg/kg group; • Protein BD-11, 10 mg/kg group, 50 mg/kg group.
Preparation of experimental animals: After the experimental animals adapt to the experimental environment (temperature 22° C.±2° C., relative humidity 50%±2%) for 1 day. Pre-adaptation to measure rectal temperature at 8:00 and 15:00, rats were fasted and water was taken freely 12 h before experiment, and let the animal to empty its feces before measuring the rectal temperature. Apply petroleum jelly to the electronic thermometer probe before each temperature measurement. Insert the rat rectum 2 cm (can be marked at 2 cm to ensure that the depth of each insertion is consistent), and record the body temperature after the reading is stable.
Subcutaneous injection of dry yeast to replicate rat fever model: The body temperature of the rats was measured before modeling. Qualified rats with a body temperature of 36.2-37.3° C. were selected and randomly divided into groups with 8 rats in each group. After oral administration of aspirin and different doses of protein BD-11, 20% yeast suspension (10 ml/kg) was injected subcutaneously immediately, and the normal control group was injected intraperitoneally with an equal volume of normal saline. The body temperatures of the rats were monitored after 2 hours for a total of 8 hours.
According to the body temperature measured at each time point on the day of the experiment, calculate the mean, standard deviation and standard error of the body temperature of each group of rats. The data of each group was compared with TTEST, and P<0.05 was considered as a significant difference.
Immediately after oral administration of aspirin (300 mg/kg), protein BD-11 (10 mg/kg, 50 mg/kg), subcutaneous injection of 20% yeast was performed to establish a model. The animal body temperature was monitored at 2 hours, 4 hours, 6 hours, and 8 hours after modeling.

[2] = system: PTZ-induced epilepsy in ICR mice; experiment: Pentylenetetrazole (PTZ) induced epilepsy in mice; type: in vivo, mouse; parameters: mortality rate: unit not given here; conditions: for Cases of deaths / Grade IV seizure rate / mortality rate / Cases of Grade IV: PTZ 65 mg/kg i.p., 10 mice; for Cases of Grade IV: 15 min observation; for Grade III seizure incubation period / Grade IV seizure incubation period: mean±SEM; for Grade IV seizure incubation period: no Grade IV recorded as maximum 900 s
Method: • Animals: male ICR mice; • Medicines: Pentylenetetrazol (PTZ), Retigabine, Protein BD-11.
Experiment grouping: • Model group; • Retigabine 60 mg/kg group; • Protein BD-11, 50 mg/kg group, 200 mg/kg group;
The drug was administered once in the afternoon the day before modeling, On the day of modeling, PTZ-65 mg/kg (modeling agent) was injected intraperitoneal 1 hour after the test drug was administered intragastrically, and the positive drug can be administered once half an hour before modeling. Continue to observe for 15 minutes after injection of PTZ.
Observation index: ①Seizure situation: the time of seizures from Grade III to […]; ②Death situation
Seizure grade: Refer to Racine grading standard: Grade 0: No response; Grade I: manifested as twitching of facial muscles or the corners of the mouth; Grade II: can nod; Grade III: twitching of one limb; Grade IV: rigidity or body twitching; Grade V: generalized epilepsy (generalized tonic seizures).
Count the cases of seizures and deaths in each group of mice in the experiment; Grade III and IV incubation period. The incubation period of mice that have not attacked to Grade IV is recorded as the maximum of 900 seconds. Chi-square test was used for statistics of the number of cases. Calculate the mean and standard error of the incubation period. Use TTEST to compare the model group with other groups, and P<0.05 is considered as a significant difference.

[3] = system: ammonia water induced cough in ICR mice; experiment: Antitussive test, cough induced by ammonia water in mice; type: in vivo, mouse; conditions: for Incubation period (cough): 10% ammonia water 10 s; for Incubation period (cough) / Number of coughs: X±SEM, n=9; for Number of coughs: within 2 minutes
Method: • Animals: male ICR mice; • Drugs and reagents: dextromethorphan hydrobromide, ammonia water, 0.2% CMC-Na, protein BD-11; • Apparatus: Compressed nebulizer (403T type), balance (XS105DU type).
Experiment grouping: • Solvent control group; • Dextromethorphan 15 mg/kg group; • Protein BD-11, 20 mg/kg group, 50 mg/kg group.
Dextromethorphan and different doses of protein BD-11 (administration volume 10 ml/kg) were given orally in groups, and the solvent control group was given the same volume of distilled water. One hour later, mice were put into a sealed box and atomized 10% ammonia water for 10 seconds, and then observed and recorded the incubation period of cough in mice and the number of coughs in 2 minutes.
Record the time point of oral administration, the time point of atomization experiment, the incubation period of mice cough and the number of coughs within 2 minutes, respectively. The incubation period of cough refers to the number of seconds from the start of the atomization of ammonia to the occurrence of cough. The performance of coughing in mice is based on contraction of their abdominal muscles (breast contraction) and opening their mouths at the same time. Calculate the mean and standard error of each group of data, and use TTEST to compare the model group with other groups, and P<0.05 is considered as a significant difference.
Give dextromethorphan (15 mg/kg) and different doses of protein BD-11 (20 mg/kg, 50 mg/kg) in advance, One hour later, the mice were put into a sealed box and atomized 10% ammonia water for 10 seconds, and then the mice were observed and recorded the incubation period of coughing and the number of coughs within 2 minutes.

[4] = BD-11 50 mg/kg dose group, P<0.05

B1: BD-11: recombinant keratin, amino acid sequence SEQ ID NO:1, expressed in E. coli, band around 59 kD; Example 4 batch tested (protein, listed as Bos taurus)
chain: MSRQSTITFQTSSRRGFSTASATTPATSRSRFSSASVTHSPAGSGGLGRISGFGSRSLYNLGGTKRVSISGCGSNFRSGFGGRASSGFGVSGGFGYGGGIGGGHGGCGFSVCPPGGIQEVTVNQSLLTPLNLQIDPNIQRVRKEEREQIKTLNNKFASFIDKVRFLEQQNKVLETKWSLLQEQGTRTVRQSLEPFFEAYITDLRRQLDSITTERGRLDAELRTMQDVVEDFKVRYEDEINKRTAAENEFVALKKDVDAAYLNKVDLEAKANSLTDEINFLQMLFEAELCQMQTRVSDTSVVLSMDNNRSLDLDSIIAEVKAQYEEIANRSRAEAESWYQTKYEELQVTAGQHGDDLRNTKQEISETNRMIQRLRAEIDNVKKQCASLQTAIADAEQRGELALKDARAKLVDLEEALQKSKQDMARLLREYQELMNIKLALDVEIATYRKLLEGEECRLSGEGVSPVNISVVTSTVSSGYGGGSSIGSGSLGLSGGSGCSFMTSGGHSLGGSSFSNSSSRGLGGSGSSFKFVSTTSSSRKSYKH
**Q.** With B1 as the molecule, how does the “Effect on increase in body temperature (summary)” value ([1]; 2, 4, 6 and 8 hours after modeling, dose not given) read?
**A.** The value was “significantly inhibit the increase in body temperature”.

**Q.** What about the “Effect on the increase in body temperature of model rats” value ([1]; BD-11 10 mg/kg dose group, most time points P<0.05 vs model group) of the same molecule?
**A.** The value was “strong effect”.

**Q.** What about the “Body temperature 2 hours after modeling” value ([1]; BD-11 10 mg/kg oral) of the same molecule?
**A.** The value was 36.7±0.1 °C.

**Q.** And the “Body temperature 4 hours after modeling” value ([1]; BD-11 10 mg/kg oral)?
**A.** Its value is 37.0±0.1 °C.

**Q.** What about the “Body temperature 6 hours after modeling” value ([1]; BD-11 10 mg/kg oral) of the same molecule?
**A.** The value was 37.4±0.1 °C.

**Q.** What about the “Body temperature 8 hours after modeling” value ([1]; BD-11 10 mg/kg oral) of the same molecule?
**A.** Its value is 37.3 ±0.1 °C.

**Q.** And the “Body temperature 2 hours after modeling” value ([1]; BD-11 50 mg/kg oral)?
**A.** Its value is 36.9 ± 0.2 °C.

**Q.** And the “Body temperature 4 hours after modeling” value ([1]; BD-11 50 mg/kg oral)?
**A.** Its value is 37.4 ± 0.1 °C.

**Q.** And the “Body temperature 6 hours after modeling” value ([1]; BD-11 50 mg/kg oral)?
**A.** The value was 37.5 ± 0.1 °C.

**Q.** And the “Body temperature 8 hours after modeling” value ([1]; BD-11 50 mg/kg oral)?
**A.** The value was 37.4 ±0.1 °C.

**Q.** What about the “Effect on the increase in body temperature of model rats” value ([1]; different doses of BD-11 (10, 50 mg/kg oral), after modeling) of the same molecule?
**A.** The value was “can inhibit the increase in body temperature of model rats to varying degrees”.

**Q.** What about the Cases of deaths ([2]; BD-11 50 mg/kg intragastric) of the same molecule?
**A.** The Cases of deaths was 0.

**Q.** And the “Grade IV seizure rate” value ([2]; BD-11 50 mg/kg intragastric)?
**A.** Its value is 90%.

**Q.** And the mortality rate ([2]; BD-11 50 mg/kg intragastric)?
**A.** Its mortality rate is 0.

**Q.** What about the “Cases of Grade IV” value ([2]; BD-11 50 mg/kg intragastric) of the same molecule?
**A.** The value was 9.

**Q.** And the “Grade III seizure incubation period” value ([2]; BD-11 50 mg/kg, PTZ model)?
**A.** The value was 68 ± 5 s.

**Q.** And the “Grade IV seizure incubation period” value ([2]; BD-11 50 mg/kg, PTZ model)?
**A.** Its value is 203 ± 81 s.

**Q.** And the “Incubation period of Grade III epilepsy, comparison with model group” value ([2]; BD-11 200 mg/kg dose group, PTZ model)?
**A.** Its value is “significantly different from the model group”.

**Q.** What about the Cases of deaths ([2]; BD-11 200 mg/kg intragastric) of the same molecule?
**A.** Its Cases of deaths is 0.

**Q.** What about the “Grade IV seizure rate” value ([2]; BD-11 200 mg/kg intragastric) of the same molecule?
**A.** Its value is 60%.

**Q.** What about the mortality rate ([2]; BD-11 200 mg/kg intragastric) of the same molecule?
**A.** Its mortality rate is 0.

**Q.** What about the “Cases of Grade IV” value ([2]; BD-11 200 mg/kg intragastric) of the same molecule?
**A.** The value was 6.

**Q.** What about the “Grade III seizure incubation period” value ([2]; BD-11 200 mg/kg, PTZ model) of the same molecule?
**A.** The value was 94 ± 12 s.

**Q.** And the “Grade IV seizure incubation period” value ([2]; BD-11 200 mg/kg, PTZ model)?
**A.** Its value is 428 ± 130 s.

**Q.** What about the “Incubation period (cough)” value ([3]; BD-11 20 mg/kg oral) of the same molecule?
**A.** Its value is 30.0 ± 3.2 s.

**Q.** And the Number of coughs ([3]; BD-11 20 mg/kg oral)?
**A.** Its Number of coughs is 61.8±4.7.

**Q.** And the “Cough incubation period vs solvent control group” value [3, 4]?
**A.** Its value is “significant improvement”.

**Q.** What about the “Number of coughs vs solvent control group” value [3, 4] of the same molecule?
**A.** The value was “significant improvement effect”.

**Q.** And the “Incubation period (cough)” value ([3]; BD-11 50 mg/kg oral)?
**A.** The value was 35.8 ± 2.0 s.

**Q.** What about the Number of coughs ([3]; BD-11 50 mg/kg oral) of the same molecule?
**A.** Its Number of coughs is 50.0±4.6.

**Q.** And the “Effect on cough incubation period (summary)” value ([3]; dose not given)?
**A.** Its value is “prolong the incubation period”.

**Q.** What about the “Effect on number of coughs (summary)” value ([3]; dose not given) of the same molecule?
**A.** Its value is “significantly reduce the number of coughs”.
